This is an account of results in publication doi:10.1101/503680 (bioRxiv, 2018).

This assay has as its target His6-KIF3A-motor (mouse, UniProt P28741 1-350). Briefly: SPR. A general note: Surface plasmon resonance follows binding to a sensor surface in real time, without labels.

For orientation: Kd means the free concentration of one partner at which half of the binding sites on the other are occupied at equilibrium, for simple one-to-one binding.

His6-KIF3A-motor, sequence (P28741 1-350): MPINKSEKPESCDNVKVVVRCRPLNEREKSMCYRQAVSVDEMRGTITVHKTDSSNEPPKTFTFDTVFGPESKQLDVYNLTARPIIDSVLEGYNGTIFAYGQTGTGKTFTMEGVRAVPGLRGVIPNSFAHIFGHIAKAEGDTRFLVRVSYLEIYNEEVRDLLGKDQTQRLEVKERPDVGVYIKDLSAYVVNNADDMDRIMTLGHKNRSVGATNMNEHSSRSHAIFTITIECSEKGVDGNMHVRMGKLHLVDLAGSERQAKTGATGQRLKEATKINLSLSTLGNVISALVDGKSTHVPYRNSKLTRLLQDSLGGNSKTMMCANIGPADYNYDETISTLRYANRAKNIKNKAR

B1: GST-KIF3A-S689A-Tail (domain or fragment, mouse, UniProt P28741 598-701, looked up)
chain: IPQDYQEMIENYVHWNEDIGEWQLKCVAYTGNNMRKQTPVPDKKERDPFEVDLSHVYLAYTEESLRQSLMKLERPRTSKGKARPKMGRRKRAAKPETVIDSLLQ
On to B1, for which the Kd is 48.4 nM. This lies in the double-digit nanomolar range.
